In publication doi:10.1101/2021.08.28.458008v1 one finds Km and kcat data, which are given here for two proteins.

Where a chain is given by its changes, count along the chain named. Numbers in names are those of the source.

Substrate in the series: O=C1O[C@H]([C@@H](O)CO)C(=O)C1=O
The series is described as follows: purified protein. The settings on record: 2 mM GSH.

B1: EcGrx2 (Escherichia coli K-12) (protein)
chain: MKLYIYDHCPYCLKARMIFGLKNIPVELHVLLNDDAETPTRMVGQKQVPILQKDDSRYMPESMDIVHYVDKLDGKPLLTGKRSPAIEEWLRKVNGYANKLLLPRFAKSAFDEFSTPAARKYFVDKKEASAGNFADLLAHSDGLIKNISDDLRALDKLIVKPNAVNGELSEDDIQLFPLLRNLTLVAGINWPSRVADYRDNMAKQTQINLLSSMAI
As a reminder, the kcat is the maximal rate divided by the concentration of active sites. On to B1, for which, for the setting “50 mM sodium phosphate pH 7.4”, the Km came to 2879 ± 640.4 µM and the catalytic constant (kcat) is 3.8245 s⁻¹.

B2: EcGrx2 (Escherichia coli K-12; C12S/C9S) (protein)
chain: B1 chain with C9S, C12S
Consider B2, for which the Km (50 mM sodium phosphate pH 7.4, His6-tagged mutant) was 968 (±462.3) µM.
